Measured values: PMC10786891, “Massively parallel profiling of RNA-targeting CRISPR-Cas13d”
Positions count from the first letter of the chain named. In names and notes the source's numbering stands.

T1: EsCas13d, nuclease-dead (Eubacterium siraeum, UniProt B0MS50, R295A;H300A;R849A;H854A)
T1 sequence: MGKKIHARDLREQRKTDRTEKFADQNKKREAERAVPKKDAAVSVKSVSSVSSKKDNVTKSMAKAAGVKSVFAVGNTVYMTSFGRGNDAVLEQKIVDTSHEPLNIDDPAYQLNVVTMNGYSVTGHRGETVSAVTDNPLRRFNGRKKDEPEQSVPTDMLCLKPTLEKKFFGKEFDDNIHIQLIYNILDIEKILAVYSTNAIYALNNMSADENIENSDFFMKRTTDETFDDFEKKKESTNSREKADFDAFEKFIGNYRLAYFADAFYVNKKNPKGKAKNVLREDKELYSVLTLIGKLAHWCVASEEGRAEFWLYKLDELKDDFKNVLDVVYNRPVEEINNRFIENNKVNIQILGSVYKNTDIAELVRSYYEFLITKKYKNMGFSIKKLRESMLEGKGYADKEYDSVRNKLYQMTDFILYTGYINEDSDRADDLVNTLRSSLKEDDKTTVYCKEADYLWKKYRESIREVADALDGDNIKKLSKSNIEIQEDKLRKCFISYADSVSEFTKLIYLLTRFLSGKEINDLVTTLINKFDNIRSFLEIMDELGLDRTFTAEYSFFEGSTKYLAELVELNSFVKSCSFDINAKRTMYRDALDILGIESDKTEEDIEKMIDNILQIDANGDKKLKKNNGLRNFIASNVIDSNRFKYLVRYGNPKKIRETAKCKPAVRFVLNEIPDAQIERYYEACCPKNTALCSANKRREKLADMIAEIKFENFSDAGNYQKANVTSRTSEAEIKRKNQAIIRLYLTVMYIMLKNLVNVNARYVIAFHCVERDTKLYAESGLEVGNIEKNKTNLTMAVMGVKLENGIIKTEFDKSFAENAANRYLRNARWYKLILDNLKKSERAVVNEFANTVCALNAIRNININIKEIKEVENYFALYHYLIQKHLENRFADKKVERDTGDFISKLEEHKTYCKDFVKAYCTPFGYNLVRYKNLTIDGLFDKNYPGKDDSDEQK

B1: target 1 C6U,A16U (mixed)
RNA 1: CACCCGUGCAAAAAUGCAGGGGUCUAAAACUGAGCGGAUAACCUCUCUAUGG
RNA 2: GGGAAUGGAUCCACAUCUACGAAUUCGUACCAUAGUGAGGUUAUCUGCUCACCGAGAUCGGAAGAGCACACGU
B2: target 2 MT 5'PFS UAC 3'PFS CCG (mixed)
RNA 1: CACCCGUGCAAAAUUGCAGGGGUCUAAAACCUUCUCCAAAUUGUUUCAUCCU
RNA 2: GGGAAUGGAUCCACAUCUACGAAUUCUACAGGAUGAAACAAUUUGGAGAAGCCGAGAUCGGAAGAGCACACGU
B3: target 2 MT 5'PFS UAC 3'PFS AAA (mixed)
RNA 1: B2 RNA 1
RNA 2: B2 RNA 2 with C52A, C53A, G54A
B4: target 2 MT 5'PFS CCU 3'PFS UCU (mixed)
RNA 1: B2 RNA 1
RNA 2: B2 RNA 2 with U27C, A28C, C29U, C52U, G54U
B5: target 2 MT 5'PFS CAU 3'PFS CUC (mixed)
RNA 1: B2 RNA 1
RNA 2: B2 RNA 2 with U27C, C29U, C53U, G54C
B6: target 2 MT 5'PFS CCU 3'PFS UCC (mixed)
RNA 1: B2 RNA 1
RNA 2: B2 RNA 2 with U27C, A28C, C29U, C52U, G54C
B7: target 2 MT 5'PFS GAU 3'PFS ACG (mixed)
RNA 1: B2 RNA 1
RNA 2: B2 RNA 2 with U27G, C29U, C52A
B8: target 2 MT 5'PFS GAU 3'PFS ACA (mixed)
RNA 1: B2 RNA 1
RNA 2: B2 RNA 2 with U27G, C29U, C52A, G54A
B9: target 2 MT 5'PFS GAU 3'PFS ACC (mixed)
RNA 1: B2 RNA 1
RNA 2: B2 RNA 2 with U27G, C29U, C52A, G54C
B10: target 2 MT 5'PFS GGU 3'PFS AUU (mixed)
RNA 1: B2 RNA 1
RNA 2: B2 RNA 2 with U27G, A28G, C29U, C52A, C53U, G54U
B11: target 2 MT 5'PFS CUA 3'PFS CCA (mixed)
RNA 1: B2 RNA 1
RNA 2: B2 RNA 2 with U27C, A28U, C29A, G54A
B12: target 2 MT 5'PFS AUU 3'PFS UCU (mixed)
RNA 1: B2 RNA 1
RNA 2: B2 RNA 2 with U27A, A28U, C29U, C52U, G54U
B13: target 2 MT 5'PFS UAC 3'PFS AAG (mixed)
RNA 1: B2 RNA 1
RNA 2: B2 RNA 2 with C52A, C53A
B14: target 2 MT 5'PFS GAU 3'PFS ACU (mixed)
RNA 1: B2 RNA 1
RNA 2: B2 RNA 2 with U27G, C29U, C52A, G54U
B15: target 2 MT 5'PFS GUU 3'PFS UUU (mixed)
RNA 1: B2 RNA 1
RNA 2: B2 RNA 2 with U27G, A28U, C29U, C52U, C53U, G54U
B16: target 2 MT 5'PFS GUU 3'PFS UUC (mixed)
RNA 1: B2 RNA 1
RNA 2: B2 RNA 2 with U27G, A28U, C29U, C52U, C53U, G54C
B17: target 2 MT 5'PFS UAC 3'PFS AAC (mixed)
RNA 1: B2 RNA 1
RNA 2: B2 RNA 2 with C52A, C53A, G54C
B18: target 2 MT 5'PFS CUA 3'PFS CCU (mixed)
RNA 1: B2 RNA 1
RNA 2: B2 RNA 2 with U27C, A28U, C29A, G54U

Target: T1, EsCas13d, nuclease-dead
Experiment: crRNA (strand 1, pre-loaded); Mg2+; 40 mM Tris-HCl pH 7.5, 150 mM NaCl, 6 mM MgCl2, 1 mM DTT, 0.1% Tween-20, 0.2 mg/ml BSA; 25 C; 10 min per concentration, then washed
Settings: tags: His6-TwinStrep-SUMO cleaved; N-terminal SNAP kept (SNAP-Surface 488); label: 3' end held by stalled T7 RNA polymerase

Going from B1 to B2, the Kd falls from 37.1 ± 2.6 nM to 6.1 ± 1.4 nM (6.1-fold).

First: B3
Second: B4
The Kd of the first is 2.2-fold higher: 6 ± 1.4 nM for the first, 2.71 ± 0.32 nM for the second. The second binds more tightly here.

Compared with B5, B6 is 3.9-fold lower in Kd: 6.8 ± 0.8 nM for the first, 1.74 ± 0.18 nM for the second.

Going from B7 to B8, the Kd falls from 17.2 ± 2.2 nM to 10.6 ± 1.6 nM (1.6-fold).

B9 and B10 are within error of each other in Kd: 17.7 ± 3.4 nM for the first, 14.8 ± 1.6 nM for the second.

Going from B11 to B12, the Kd rises from 2.9 ± 1 nM to 10.7 ± 0.6 nM (3.7-fold). The first binds more tightly here.

Compared with B13, B14 is 3.5-fold higher in Kd: 5.8 ± 1 nM for the first, 20.1 ± 3.2 nM for the second.

Compared with B15, B16 is 1.6-fold lower in Kd: 51 ± 11 nM for the first, 31 ± 5 nM for the second.

Going from B17 to B18, the Kd rises from 11 ± 4 nM to ~49 nM (4.5-fold). The first binds more tightly here.
